Positions count from the first letter of the chain named. Names and notes keep the numbering of the source.
T1: human CD19 (human, UniProt P15391 20-556)
T1 construct: CD19 as expressed on Raji, NALM-6 and SU-DHL-6 cells; also called CD19 antigen; B-cell surface antigen B4
T1 sequence: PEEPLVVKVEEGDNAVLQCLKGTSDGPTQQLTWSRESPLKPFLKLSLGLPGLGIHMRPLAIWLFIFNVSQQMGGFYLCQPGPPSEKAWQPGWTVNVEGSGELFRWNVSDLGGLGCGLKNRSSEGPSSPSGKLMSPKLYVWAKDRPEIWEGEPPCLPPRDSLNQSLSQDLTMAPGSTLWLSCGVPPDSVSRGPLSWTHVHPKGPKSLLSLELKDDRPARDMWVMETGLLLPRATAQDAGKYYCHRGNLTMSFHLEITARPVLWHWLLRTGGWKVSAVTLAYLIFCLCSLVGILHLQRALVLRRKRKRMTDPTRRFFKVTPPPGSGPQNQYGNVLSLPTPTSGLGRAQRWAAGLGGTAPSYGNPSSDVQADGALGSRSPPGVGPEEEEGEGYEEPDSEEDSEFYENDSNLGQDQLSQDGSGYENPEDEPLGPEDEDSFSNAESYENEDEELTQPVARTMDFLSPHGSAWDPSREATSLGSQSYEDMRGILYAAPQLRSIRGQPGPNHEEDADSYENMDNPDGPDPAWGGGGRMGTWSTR

B1: VH16-F67L/VL43 (antibody, human IgG1, name in Kabat numbering, V domains shown)
VH: QVQLVQSGGGVVQPGRSLRLSCAASGVSLPDYGVSWVRQAPGKGLEWVAVIWGSETTYYNSALKSRLTISRDNSKNTLYLQMNSLRAEDTAVYYCARHYYYGGSYAMDYWGQGTLVTVSS
VL: DIVMTQTPSSLSASVGDRVTITCRASQDISKYLNWYQQKPGKAPKLLIYHTSRLHSGVPSRFSGSGSGTDFTLTISSLQPEDFATYYCQQGNTLPYTFGPGTKVDIKR
notes: substitutions in Kabat numbering
B2: VH16-F67L/VL43-P44V (antibody, human IgG1, name in Kabat numbering, V domains shown)
VH: B1 VH
VL: B1 VL with P44V
notes: as for B1
B3: VH16-G42R/VL43 (antibody, human IgG1, name in Kabat numbering, V domains shown)
VH: B1 VH with G42R, L67F
VL: B1 VL
notes: as for B1
B4: VH16-G42R/VL43-F71Y (antibody, human IgG1, name in Kabat numbering, V domains shown)
VH: B1 VH with G42R, L67F
VL: B1 VL with F71Y
notes: as for B1
B5: VH16-G42R/VL43-Y87F (antibody, human IgG1, name in Kabat numbering, V domains shown)
VH: B1 VH with G42R, L67F
VL: B1 VL with Y87F
notes: as for B1
B6: VH16-L78V/VL43-P44V (antibody, human IgG1, name in Kabat numbering, V domains shown)
VH: B1 VH with L67F, L78V
VL: B1 VL with P44V
notes: as for B1
B7: VH16-R71K/VL43-F71Y (antibody, human IgG1, name in Kabat numbering, V domains shown)
VH: B1 VH with L67F, R71K
VL: B1 VL with F71Y
notes: as for B1
B8: VH16/VL43-P44V (antibody, human IgG1, V domains shown)
VH: B1 VH with L67F
VL: B1 VL with P44V
notes: as for B1
B9: VH16-R94K/VL43-F71Y (antibody, human IgG1, V domains shown)
VH: B1 VH with L67F, R97K
VL: B1 VL with F71Y
notes: Full-length human IgG1/kappa; substitutions in Kabat numbering
B10: VH16-R94K/VL43-P44V (antibody, human IgG1, V domains shown)
VH: B1 VH with L67F, R97K
VL: B1 VL with P44V
notes: as for B9
B11: VH16/VL43-Y87F (antibody, human IgG1, V domains shown)
VH: B1 VH with L67F
VL: B1 VL with Y87F
notes: as for B1
B12: VH16 R94K VL43 Y32F (antibody, human IgG1, V domains shown)
VH: B1 VH with L67F, R97K
VL: B1 VL with Y32F
notes: as for B9
B13: VH16 R94K/VL43 V3Q/T7S/N92A (antibody, human IgG1)
heavy: not shown
VL: DIQMTQSPSSLSASVGDRVTITCRASQDISKYLNWYQQKPGKAPKLLIYHTSRLHSGVPSRFSGSGSGTDFTLTISSLQPEDFATYYCQQGATLPYTFGPGTKVDIKRTVAA
notes: as for B9
B14: VH16 R94K/VL43 V3Q/T7S/Y32F/N92A (antibody, human IgG1, V domains shown)
VH: B1 VH with L67F, R97K
VL: B1 VL with V3Q, T7S, Y32F, N92A
notes: as for B9
B15: VH16-R94K/VL43-Y87F (antibody, human IgG1, V domains shown)
VH: B1 VH with L67F, R97K
VL: B1 VL with Y87F
notes: as for B9
B16: VH16 Y32F/R94K/VL43 V3Q/T7S/P44I/N92A (antibody, human IgG1, name in Kabat numbering, V domains shown)
VH: B1 VH with Y32F, L67F, R97K
VL: B1 VL with V3Q, T7S, P44I, N92A
notes: as for B9
B17: VH16 R94K/Y97F/VL43 V3Q/T7S/Y32F/P44I/N92A (antibody, human IgG1, name in Kabat numbering, V domains shown)
VH: B1 VH with L67F, R97K, Y100F
VL: B1 VL with V3Q, T7S, Y32F, P44I, N92A
notes: as for B9
B18: VH16 Y32F/R94K/VL43 V3Q/T7S/Y32F/P44I/N92A (antibody, human IgG1, name in Kabat numbering, V domains shown)
VH: B1 VH with Y32F, L67F, R97K
VL: B1 VL with V3Q, T7S, Y32F, P44I, N92A
notes: as for B9
B19: VH16 Y32F/R94K/Y97F/VL43 V3Q/T7S/P44I/N92A (antibody, human IgG1, name in Kabat numbering, V domains shown)
VH: B1 VH with Y32F, L67F, R97K, Y100F
VL: B1 VL with V3Q, T7S, P44I, N92A
notes: as for B9
B20: VH2VL40 (antibody, V domains shown)
VH: B1 VH with Q1E, Q6E, L67F, R86K, A87T, A96T, R97T
VL: B1 VL with A43V, K45N, D70E, P100G, D105E
B21: VH5VL43 (antibody, V domains shown)
VH: EVQLVESGGGLVKPGGSLRLSCAASGVSLPDYGVSWIRQAPGKGLEWVSVIWGSETTYYNSALKSRFTISRDNAKNSLYLQMDSLRVEDTAVYYCAGHYYYGGSYAMDYWGQGTLVTVSS
VL: B1 VL
B22: VH16/VL39 (antibody, human IgG1, V domains shown)
VH: B1 VH with L67F
VL: B1 VL with T7S, S10T, D70E, E81D, P100Q, D105E
B23: VH16/VL40 (antibody, human IgG1, V domains shown)
VH: B1 VH with L67F
VL: B1 VL with A43V, K45N, D70E, P100G, D105E
B24: VH16/VL44 (antibody, human IgG1, V domains shown)
VH: B1 VH with L67F
VL: B1 VL with T7S, L11M, V15I, K45N, D70E, P100Q, V104L, D105E
B25: VH20/VL39 (antibody, human IgG1, V domains shown)
VH: B1 VH with V11L, R16G, A23V, A49S, L67F, S74A, T77S
VL: B1 VL with T7S, S10T, D70E, E81D, P100Q, D105E
B26: VH20/VL40 (antibody, human IgG1, V domains shown)
VH: B1 VH with V11L, R16G, A23V, A49S, L67F, S74A, T77S
VL: B1 VL with A43V, K45N, D70E, P100G, D105E
B27: VH20/VL43 (antibody, human IgG1, V domains shown)
VH: B1 VH with V11L, R16G, A23V, A49S, L67F, S74A, T77S
VL: B1 VL
B28: VH20/VL44 (antibody, human IgG1, V domains shown)
VH: B1 VH with V11L, R16G, A23V, A49S, L67F, S74A, T77S
VL: B1 VL with T7S, L11M, V15I, K45N, D70E, P100Q, V104L, D105E
B29: VH5VL39 (antibody, V domains shown)
VH: B21 VH
VL: B1 VL with T7S, S10T, D70E, E81D, P100Q, D105E

biological target: T1, human CD19; assay: flow cytometry, NALM-6 cells, MPF vs chimeric FMC63
Protocol: (§1) Binding of the CD19 humanized monoclonal antibodies by flow cytometry to Raji tumor cells (human Burkitt lymphoma, DSMZ ACC319), NALM-6 (human B cell precursor leukemia, DSMZ ACC128) and SU-DHL-6 (human B cell lymphoma, DSMZ ACC572) (all cell lines from DSMZ Braunschweig, Deutschland) was assessed. Cells were incubated with serial dilutions of each humanized monoclonal antibody. An irrelevant human IgG1 was used as a negative control. The cells were washed and detected by a phycoerythrin-labeled (PE) anti-human secondary antibody (eBioscience, CA, USA) and analyzed by flow cytometry. […] From MFI versus antibody concentration curves, Mid-Point Fluorescence (MPF) value for each anti-CD19 humanized antibody was calculated using the software GraphPad Prism 5 (CA, USA).

For B1, which “relative MPF (% of chimeric FMC63)” value is on record?
Its value is 2.4%.

How did the “relative MPF (% of chimeric FMC63)” value turn out when B2 was run?
The value was 2.37%.

With B3 as the binder, how does the “relative MPF (% of chimeric FMC63)” value read?
Its value is 3.48%.

With B4 as the binder, how does the “relative MPF (% of chimeric FMC63)” value read?
The value was 3.97%.

How did the “relative MPF (% of chimeric FMC63)” value turn out when B5 was run?
Its value is 3.65%.

B6 was tested. Which “relative MPF (% of chimeric FMC63)” value did it give?
Its value is 10.9%.

Which “relative MPF (% of chimeric FMC63)” value does the source give for B7 here?
Its value is 2.67%.

With B8 as the binder, how does the “relative MPF (% of chimeric FMC63)” value read?
Its value is 6.05%.

Which “relative MPF (% of chimeric FMC63)” value does the source give for B9 here?
Its value is 23.5%.

Which “relative MPF (% of chimeric FMC63)” value does the source give for B10 here?
Its value is 32.9%.

biological target: T1, human CD19; assay: flow cytometry, Raji cells, MPF vs chimeric FMC63
Protocol: as §1

With B5 as the binder, how does the “relative MPF (% of chimeric FMC63)” value read?
The value was 8.43%.

With B6 as the binder, how does the “relative MPF (% of chimeric FMC63)” value read?
Its value is 25.9%.

How did the “relative MPF (% of chimeric FMC63)” value turn out when B8 was run?
The value was 9.72%.

B11 was tested. Which “relative MPF (% of chimeric FMC63)” value did it give?
The value was 10%.

For B12, which “relative MPF (% of chimeric FMC63)” value is on record?
The value was 39.5%.

With B13 as the binder, how does the “relative MPF (% of chimeric FMC63)” value read?
Its value is 18.2%.

Does B14 bind?
Result: binds

B9 was tested. Which “relative MPF (% of chimeric FMC63)” value did it give?
The value was 41.8%.

How did the “relative MPF (% of chimeric FMC63)” value turn out when B10 was run?
The value was 52.9%.

Which “relative MPF (% of chimeric FMC63)” value does the source give for B15 here?
Its value is 31.8%.

Which “relative MPF (% of chimeric FMC63)” value does the source give for B16 here?
Its value is 133%.

Does B17 bind?
Result: binds

Does B18 bind?
Result: binds

Does B19 bind?
Result: binds

biological target: T1, human CD19; assay: flow cytometry on Raji cells, PE-labelled anti-human secondary antibody, MFI against antibody concentration
Protocol: These immunoglobulins were assessed for antigen-binding affinity by half-maximal binding assays on B-cell lymphoma cell-lines (FACS) and compared to a chimeric version of FMC63 (this was to standardized level of staining from the anti-human Fc PE-labeled detection-antibody, as described in Example 2).
as §1

Does B20 bind?
Result: no binding (tested: about 10 ug/ml (Log(ug/ml) about 1))

Does B21 bind?
Result: no binding (tested: about 10 ug/ml (Log(ug/ml) about 1))

Does B22 bind?
Result: binds

Does B23 bind?
Result: binds

Does B24 bind?
Result: binds

Does B25 bind?
Result: binds

Does B26 bind?
Result: binds

Does B27 bind?
Result: binds

Does B28 bind?
Result: binds

Does B29 bind?
Result: no binding (tested: about 10 ug/ml (Log(ug/ml) about 1))
